# Assay results taken from patent US20220356229A1 (published 2022).
# B1: mAb 1538 (antibody, V domains shown)
# VH: EVQLLESGGGLVQPGGSLRLSCAASGFTFSSYAMSWVRQAPGKGLEWVSGISDSGGSTYYADYVKGRFTISRDNSKDTLYLQMNSLRAEDTAVYYCAKDRGNEYALTHYYYYAMDVWGQGTTVTVSS
# VL: DIQMTQSPSSLSASVGDRVTITCRASQSISSYLNWYQQKPGKAPKLLIYAAYSLQSGVPSRFSGGGSGTDFTLTISSLQPEDFATYFCQQSYSTPITFGQGTRLEIKR
# notes: human IgG1
# B2: mAb 1444 (antibody, V domains shown)
# VH: QVQLVQSGAEVKKPGASVKVSCKASGYTFTAYYMHWVRQAPGQGLEWMGWINPNSDDTNYAQKFQGRVTMTRDTSISTAYMELSRLRSDDTAVYYCAREEGVFTIGDRYFDLWGRGTLVSVSS
# VL: QTVVTQEPSFSVSPGGTVTLTCGLSSGSVSTSYYPSWYQQTPGQAPRTLIYNTNTRSSGVPDRFSGSILGNKAALTITGAQADDESDYYCVLYMGSGIWVFGGGTKLTVLG
# notes: human IgG1
# B3: mAb 1495 (antibody, V domains shown)
# VH: QVQLVESGGGVVQPGRSLRLSCTASGFTFSSYAMHWVRQAPGKGLEWVAVISYDGNNKYYGDSVKGRFTISRDNSKNTLYLQMNSLRAEDTAVYYCAKGADTPHYSGYHFLSVGYYFYGMDVWGQGTTVTVSS
# VL: DIQMTQSPSSLSASVGDRVTITCRASQSISYYLNWYQQKPGKAPQLLIYAASSLQSGVPSRFSGSRSGTDFTLTISSLQPEDFATYYCQQSYSTPFTFGPGTKVDIKR
# notes: human IgG1
# B4: mAb 1585 (antibody, V domains shown)
# VH: QVQLVESGGGVVQPGRSLRLSCAASGFTFSRFTLHWVRQAPGKGLEWVAVISYDGSNKYYADSVKGRFTISRDNSKSTLYLQMNSLRAEDTGVYYCARDPSTVTGYFDYWGQGTLVTVSS
# VL: SYVLTQPPSVSVAPGKTAKISCGGDSIGSKSVHWYQQKPGQAPVLVIYYDNDRPSGIPERFSGSNSGNTATLTISRVEAGDEADYYCQVWDIGVVFGGGTKLTVLG
# notes: human IgG1
# B5: antibody 454 (antibody, V domains shown)
# VH: QVQLVQSGAEVKKPGASLKVSCKASGYIFTGYYMHWVRQAPGQGLEWMGWISPNSGGTKYAQKFQGRVTMTRDTSISTAYMELSRLRSDDSAVYYCAREPYYDILTGYYTPRRYLDYWGQGTLVTVSS
# VL: QSALTQPASVSGSPGQSITISCTGTSSDVGDYNYVSWYQQHPGKVPKLMIYDVSHRPSGVTNRFSGSKSGNTASLTISGLRAEDEADYYCSSYTSSSTYVFGTGTKVTVL
# B6: antibody 475 (antibody, V domains shown)
# VH: QVQLVESGGGVVQPGRSLRLSCAASGFTFSSYAMHWVRQAPGKGLEWVTFISHEGSNKYYADSVKGRFTISRDNSKNTLYLQMNSLRAEDTAVYYCARTFEYSSSSATGDFDYWGQGTLVTVSS
# VL: QSVLTQPPSVSGAPGQRVTISCTGSSSNIGAGYDVHWYQQLPGTAPKLLIYGNSNRPSGVPDRFSGSKSGTSASLAITGLQAEDEADYYCQSYDSSLSGVVFGGGTKLTVL
# B7: antibody 476 (antibody, V domains shown)
# VH: QVQLVQSGSELKKPGASVKVSCKASGYTFTSYAMNWVRQAPGQGLEWMGWINTNTGNPTYAQGFTGRFVFSLDTSVSTAYLQISSLKAEDTGVYYCARDHELPNSSSWFGHFEYWGQGTLVTVSS
# VL: SYELTQPPSVSVSPGQTARITCSGDALPKQYAYWYQQKAGQAPVLVIYKDSERRSGIPERFSGSSSGTTVTLTISGVQAEDEADYYCQSADSSGTSVVFGGGTKLTVL
# B8: antibody 474 (antibody, V domains shown)
# VH: EVQLVESGGGLVQPGGSLRLSCAASGFTFSSYWMHWVRQAPGKGLVWVSRINSDGSSTSYADSVKGRFTISRDNAKNTLYRQMNSLRAEDTAVYYCALGPLDIVGSYYYYGMDVWGQGTTVTVSS
# VL: NFMLTQPHSVSESPGKTVTISCTGSSGSIASNYVQWYQQRPGSAPTTVIYEDNQRPSGVPDRFSGSIDSSSNSASLTISGLKTEDEADYYCQSYDSSNQDVVFGGGTKLTVL
# B9: antibody 439 (antibody, V domains shown)
# VH: QVQLVESGGGVVQPGRSLRLSCAASGFTFSSYAMHWVRQAPGKGLEWVAVISYDGSNKYYADSVKGRFTISRDNSKNTLYLQMNSLRAEDTAVYYCARPPRGGSYYPFDPWGQGTLVTVSS
# VL: not shown
# B10: antibody 446 (antibody, V domains shown)
# VH: QVQLVESGGGVVQPGRSLRLSCAASGFTFSSYAMHWVRQAPGKGLEWVAVISYDGSNKYYADSVKGRFTISRDNSKNTLYLQMNSLRAEDTAVYYCARPNSGSYFGYFQHWGQGTLVTVSS
# VL: QSVLTQPPSVSGAPGQRVTISCTGSSSNIGAGYDVHWYQQLPGTAPKLLIYGNSNRPSGVPDRFSGSKSGTSASLAITGLQAEDEADYYCQSYDSSLSGFYVFGTGTKVTVL
# B11: antibody 443 (antibody, V domains shown)
# VH: QMRLEESGPGLVKPSETLSLTCTVAGGSITSSDYFWGWLRQSPGKGLEWIASTYHGGSIQYHPALKSRVTISVDASKNQISLRLSSVTAADTAVYYCARDRGDDGPMGTYYFDHWGQGALVTVSS
# VL: QSVLTQPPSVSGAPGQSVTISCAGSSSNIGAGHDVHWYQQIPGTAPKLLICGNTNRPSGVPERFSGSRSGTSASLAITGLQAEDEAVYYCQSYDPSHVFFGTGTKLTVL
# B12: antibody 477 (antibody, V domains shown)
# VH: QVQLVESGGGVVQPGRSLRLSCAASGITFSSYAMHWVRQAPGKGLEWVAVISYDGSDKYHADSVKGRFAISRDNSKNTLYLQMNSLRAEDTAVYYCAKDKGIAVAGTGWIRPDPEYYFDYWGQGTLVTVSS
# VL: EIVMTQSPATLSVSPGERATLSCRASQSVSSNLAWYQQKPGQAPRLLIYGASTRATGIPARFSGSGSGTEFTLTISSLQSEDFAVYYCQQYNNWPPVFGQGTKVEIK
# B13: antibody 452 (antibody, V domains shown)
# VH: QVQLVESGGGLVKPGGSLRLSCAASGFTFSDYYLSWIRQAPGKGLEWVSYISSSGSNIYYADSVKGRFTISRDNAKNSLYLQMNSLRADDTAVFYCARAGRYCSGGSCRVEYFQHWGQGTLVTVSS
# VL: SYELTQPPSVSVSPGQTARITCSGDALPKQYAYWYQQKPGQAPVLVIYKDNERPSGIPERFSGSSSGTTATLTISGVQAEDEADYYCQSADSSGTVVFGGGTKLTVL
# B14: antibody 470 (antibody, V domains shown)
# VH: not shown
# VL: QSALTQPASVSGSPGQSITISCTGTSSDVGSYNLVSWYQQHPGKAPKLMIYEVSKRPSGVSNRFSGSKSGNTASLTISGLQAEDEADYYCCSYAGSSTLVFGGGTKLTVL
# B15: antibody 485 (antibody, V domains shown)
# VH: QVQLQESGPGLVKPSGTLSLTCAVSGASISSSNWWSWVRQPPGKGLEWIGEIYHSGSTNYNPSLKSRVTISVDKSKNQFSLKLSSVTAADTAVYYCARRSYYGSGSYYPFDYWGQGTLVTVSS
# VL: QSALTQPASVSGSPGQSITISCTGTSSDVGSYNLVSWYQQHPGKAPKLMIYEGRKRPSGVSNRFSGSKSGNTASLTISGLQAEDEADYYCCSYAGSSTYVFGTGTKVTVL
# B16: antibody 444 (antibody, V domains shown)
# VH: QVQLVESGGGLVKPGGSLRLSCAASGFTFSDYYMSWIRQAPGKGLEWVSYISSSGSTIYYADSVKGRFTISRDNAKNSLYLQMNSLRAEDTAVYYCARERKVVVAATRNYYYYYGMDVWGQGTTVTVSS
# VL: SYELTQPPSVSVSPGQTARITCSGDALPKQYAYWYQQKPGQAPVLVIYKDSERPSGIPERFSGSSSGTTVTLTISGVQAEDEADYYCQSADSSTWVFGGGTKLTVL
# B17: anti-SARS-CoV-2 antibody 923 (antibody, V domains shown)
# VH: EVQLVESGGGVVRPGGSLRLSCAASGFIFDDYDMTWVRQAPGKGLEWVSGISWNGGNTGYADSVKGRFTISRDNAKNSLYLQMNSLRAEDTALYHCAVIMSPIPRYSGYDWAGGAFDIWGQGTMVTVSS
# VL: SSELTQDPAVSVALGQTVRITCQGDSLRSYYASWYQQKPGQVPILVIYDKNNRPSGIPDRFSGSSSGNTASLTITGAQAEDEADYYCNSRDSSGNAVVFGGGTKLTVLG
# B18: anti-SARS-CoV-2 antibody 1037 (antibody, V domains shown)
# VH: QITLKESGPTLVKPTQTLTLTCTFSGFSLSTSGVGVGWIRQPPGKALEWLALIYWDDDKRYSPSLKSRLTITKDTSKNQVVLTMTNMDPVDTATYYCAHHTITRINDYWGQGTLVTVSS
# VL: QSALTQPASVSGSPGQSITISCTATSSDVGAYNYVSWYQQHPGKAPKLMIYDVSKRPSGVSNRFSGSKSGNTASLTISGLQAEDEADYYCSSYTSSSTVFGGGTKLTVLG
# B19: anti-SARS-CoV-2 antibody 970 (antibody, V domains shown)
# VH: EVQLVESGGGLVQPGGSLRLSCAASGFTFSSYWMSWVRQAPGKGLEWVANINKDGSEKYYVDSVKGRFTISRDNAKNSLYLQMNSLRAEDTAVYFCARDYRYFDWLLSQIDLEIDYFDYWGQGTLVTVSS
# VL: not shown
# B20: anti-SARS-CoV-2 antibody 1585 (antibody, V domains shown)
# VH: QVQLVESGGGVVQPGRSLRLSCAASGFTFSRFTLHWVRQAPGKGLEWVAVISYDGSNKYYADSVKGRFTISRDNSKSTLYLQMNSLRAEDTGVYYCARDPSTVTGYFDYWGQGTLVTVSS
# VL: SYVLTQPPSVSVAPGKTAKISCGGDSIGSKSVHWYQQKPGQAPVLVIYYDNDRPSGIPERFSGSNSGNTATLTISRVEAGDEADYYCQVWDIGVVFGGGTKLTVLG
# Target: SARS-CoV-2 Spike protein (SARS-CoV-2, UniProt P0DTC2 14-1208)
# Assay: HT-SPR (Carterra LSA), mAb coupled to chip, Spike in solution, 1:1 Langmuir fit
Binder,Kd [nM],koff [s⁻¹],kon [M⁻¹ s⁻¹]
B1,≤ 0.0754,≤ 1e-05,133000
B2,≤ 0.0221,≤ 1e-05,453000
B3,0.0972,1.01e-05,103000
B4,≤ 0.0171,≤ 1e-05,586000

# Target: SARS-CoV Spike protein (SARS-CoV, UniProt P59594 14-1190)
# Assay: not given
row,Binder,bead binding signal (fold over isotype control)
1,B5,1.1
2,B6,1.18
3,B7,1.04
4,B8,1.1
5,B9,1.23
6,B10,6.58
7,B11,1.03
8,B12,1.3
9,B13,1.09
10,B14,1.09
11,B15,1.12
12,B16,1

# Target: SARS-CoV-2 full length Spike protein, wild type, expressed on CHO cells (SARS-CoV-2, UniProt P0DTC2 14-1273)
# Assay: not given
row,Binder,"median fluorescence intensity, fold over isotype control [fold over isotype]"
1,B17,59
2,B18,83
3,B19,20.6
4,B20,9.55

# Target: SARS-CoV full length Spike protein, wild type, expressed on CHO cells (SARS-CoV, UniProt P59594 14-1255)
# Assay: not given
row,Binder,"median fluorescence intensity, fold over isotype control [fold over isotype]"
1,B17,118
2,B18,23.1
3,B19,124
4,B20,19.9
